Experimental data taken from patent US8632772B2, “Methods of treating multiple myeloma using combination therapies based on anti-CS1 antibodies” (Dana-Farber Cancer Institute, priority 2006, dated 2014).

B1: HuLuc63: humanized recombinant monoclonal IgG1 antibody directed to human CS1; heavy chain variable region SEQ ID NO: 5, light chain variable region SEQ ID NO: 6 (antibody, listed as Homo saiens, listed as Homo sapiens, V domains shown)
VH: EVQLVESGGGLVQPGGSLRLSCAASGFDFSRYWMSWVRQAPGKGLEWIGEINPDSSTINYAPSLKDKFIISRDNAKNSLYLQMNSLRAEDTAVYYCARPDGNYWYFDVWGQGTLVTVSS
VL: DIQMTQSPSSLSASVGDRVTITCKASQDVGIAVAWYQQKPGKVPKLLIYWASTRHTGVPDRFSGSGSGTDFTLTISSLQPEDVATYYCQQYSSYPYTFGQGTKVEIK

Columns and labels:
[1] = tested on: CS1; test: CS1 protein expression on OPM2 cell line (flow cytometry); format: cell-based, human; conditions: OPM2 multiple myeloma cell line
Procedure: The effect of HuLuc63 and bortezomib treatment on expression of CS1 in MM cell lines and mouse xenograft tumors was examined by flow cytometry and immunohistochemistry respectively.
The combination of HuLuc63 with bortezomib was then tested for anti-myeloma activity in vitro using ADCC assays. […] OPM2 cells were pretreated with vehicle control (square symbols) or bortezomib (10 nM; round symbols) for 18 hrs and were then subjected to HuLuc63 mediated ADCC using human NK cells from healthy donors. HuLuc63 (closed symbols) and isotype control antibody (open symbols) were used at doses ranging from 0.001-10 μg/ml.

[2] = tested on: MHC class I; conditions: bortezomib treatment of myeloma cells; cited from earlier work
[3] = tested on: OPM2 myeloma cells; test: 51Cr release ADCC assay, OPM2 cells with NK cells from healthy donors; format: cell-based, human; conditions: bortezomib 10 nM, 18 hrs; NK effector cells from healthy donors
Procedure: OPM2 myeloma cells were harvested at mid-log phase, suspended at a density of 1.0×10^6 cells/mL in complete media (RPMI with 10% FBS) and treated overnight with or without Velcade (10 nM). Cells were collected, washed, re-suspended at a density of 20×10^6 viable cells/mL, and labeled for one hour with […] Na2[^51Cr]O4 per 10^6 cells. ^51Cr-Labeled cells were washed then added to a 96-well V-bottomed polystyrene plate at a cell density of 15,000 cells per 75 μL RPMI supplemented with 10% heat-inactivated FBS. HuLuc63 and a human IgG1 isotype control antibody MSL-109 were added to target cells for a final antibody concentration ranging from 0.001 to 10 μg/mL. NK cells were enriched from the whole blood of healthy donors using the RosetteSep human NK cell enrichment cocktail (Stem Cell Technologies). The enriched NK cells were added to Velcade treated or untreated OPM2 cells at a ratio of 10:1. After a 4-hour incubation at 37° C., cells were centrifuged and the supernatants measured for released ^51Cr. Maximum release was determined from target cells lysed with […] Digitonin. Antibody independent cellular cytotoxicity (AICC) was determined using target cells, plus media, plus NK cells, while spontaneous lysis was determined using ^51Cr-labelled cells plus media without NK effectors. % Cytotoxicity was calculated as ((sample−AICC)/(Maximum−AICC)*100. […]

[4] = tested on: OPM2 tumor; test: OPM2 xenograft mouse model, second experiment (clinic-like bortezomib schedule); format: in vivo, mice; conditions: HuLuc63 1 mg/kg ip twice a week, 10 doses; bortezomib 1 mg/kg ip twice weekly weeks 1, 2, 4, 5
Procedure: In a second experiment, HuLuc63 was combined with bortezomib in vivo, using a different dose and dosing schedule for bortezomib, while keeping the original HuLuc63 dose and dosing schedule. OPM2 cells were inoculated into the flanks of SCID mice. When tumors reached an average size of about 100 mm3, animals were randomized into 4 groups of 15 mice each and were treated with 1 mg/kg of antibody administered intraperitoneally twice a week for a total of 10 doses. Bortezomib was administered intraperitoneally at a dose of 1 mg/kg twice for weeks 1 and 2, no treatment for week 3, and 1 mg/kg twice for weeks 4 and 5 for a total of 8 doses. The intent for this dosing schedule was to more closely mimic the dosing schedule of bortezomib in the clinic, where each treatment cycle consists of 2 weeks of dosing, with one week off. Tumor growth was monitored for a period of 1-2 months.

[5] = tested on: patient MM cells; test: calcein-AM release ADCC assay, autologous patient MM cells with PBMC effector cells; format: cell-based, human
Procedure: (§1) ADCC was measured by calcein-AM release assay, with sensitivity similar to traditional Cr^51 assay, as described previously. After informed consent, peripheral blood mononuclear cells (PBMCs) including natural killer (NK) effector cells were isolated from leukopheresis products of normal donors or peripheral blood from MM patients. Increasing concentrations (0-10 μg/ml) of either HuLuc63 or human isotype control IgG1 MSL109 mAbs were added at effector:target (E:T) ratios of 20:1, in a final volume of 200 μl per well. In some experiments, PBMC effector cells were pretreated with lenalidomide for 3 days at 0.2 μM before HuLuc63-mediated ADCC assays were performed. After 4 h incubation, 100 μl culture supernatants were transferred to a Black ViewPlate™-96 plate and arbitrary fluorescent units (AFU) were read on a fluorometer (Wallac VICTOR2). This assay is valid only if (AFU mean maximum release−medium control release)/(AFU mean spontaneous release−medium control release)>7. Calculation of % specific lysis from triplicate experiments was done using the following equation: […]
HuLuc63-mediated lysis of patient MM cells by effector cells from the same patient was measured using an ADCC assay.
HuLuc63-mediated lysis of patient myeloma cells by PBMC effector cells from the same patient was measured using an ADCC assay. CD138-purified tumor cells from a patient with MM were incubated with autologous effector cells in the presence of serial dilutions of HuLuc63 (solid symbols) or isotype control IgG1 (open symbols). PBMC effector cells were pre-incubated for 3 days in the presence or absence of with lenalidomide […] (square symbols) or vehicle control (round symbols), followed by HuLuc63-mediated ADCC. […] Similarly, pretreatment of effector cells with lenalidomide enhanced HuLuc63-induced lysis of myeloma cell lines (FIGS. 3A and 3B).

[6] = tested on: myeloma cell lines; test: calcein-AM release ADCC assay, myeloma cell lines, effector cells pretreated with lenalidomide; format: cell-based, human
Procedure: as §1
HuLuc63-mediated lysis of patient myeloma cells by PBMC effector cells from the same patient was measured using an ADCC assay. […]

[7] = tested on: OPM2 tumor; test: OPM2 xenograft mouse model, first experiment; format: in vivo, mice; conditions: HuLuc63 1 mg/kg ip twice weekly, 6 doses; bortezomib 0.75 mg/kg ip twice a week
Procedure: Six- to eight-week old female IcrTac:ICR-Prkdc^scid mice obtained from Taconic Farms (Germantown, N.Y.) were inoculated with 1×10^7 OPM2 (American Type Culture Collection) cells into the lower right flank. Caliper measurements were performed twice weekly to calculate tumor volume using the following formula: L×W×H/2, where L (length) is the longest side of the tumor in the plane of the animal's back, W (width) is the longest measurement perpendicular to the length and in the same plane and H (height) is taken at the highest point perpendicular to the back of the animal. When tumors reached an average size of about 100 mm^3, animals were randomized into 3 groups of 8-10 mice each and were treated with 1 mg/kg of antibody administered intraperitoneally twice a week for a total of 6 doses. […] Tumor growth was monitored for a period of 1-2 months.

[8] = tested on: myeloma cells; conditions: cited from earlier work
[9] = tested on: myeloma tumor; conditions: myeloma mouse tumor model; cited from earlier work

Molecule | change in CS1 expression pre- or post-treatment [1] | cell-surface expression of MHC class I on myeloma cells [2] | effect of pre-treatment of OPM2 cells on HuLuc63-mediated ADCC [3] | anti-tumor activity [4] | effect of pre-incubation of PBMC effector cells on HuLuc63-mediated ADCC activity, autologous patient sample ([5]; lenalidomide (0.2 µM) for 3 days before ADCC) | effect of pretreatment of effector cells on HuLuc63-induced lysis of myeloma cell lines [6] | anti-tumor activity [7] | lysis of myeloma cells via ADCC [8] | autologous myeloma cell lysis (ADCC) ([5]; patient MM cells with effector cells from the same patient, 0-10 μg/ml, E:T 20:1) | autologous tumor cell lysis in patients with MM resistant or refractory to bortezomib and/or 17-AAG ([5]; resistant or refractory patient tumor cells, autologous effector cells) | reduction of tumor mass [9]
CC(C)C[C@H](NC(=O)[C@H](Cc1ccccc1)NC(=O)c1cnccn1)B(O)O [bortezomib, reference compound] | no significant change | down-modulation | significantly enhanced | significant anti-tumor activity |  |  |  |  |  |  | 
Nc1cccc2c1CN(C1CCC(=O)NC1=O)C2=O (stereo not shown) [lenalidomide, reference compound] |  |  |  |  | significantly increased the ADCC activity | enhanced |  |  |  |  | 
B1 | no significant change |  |  | significant anti-tumor activity |  |  | significant anti-tumor activity | effectively mediates lysis | induced significant autologous myeloma cell lysis | demonstrated | more than 50%
